Results reported in patent US20140087995A1 (published 2014).
Numbered stars: 1 amine (or outer) side, 2 acyl side, 3 side chain; on linkers, the order of the positions; unused ones are H or OH. Bridge positions count the residues as written; N and C are the ends. Side chains are listed from the residue outwards. Ends that are not written are not given here. * marks the point of attachment. C20 diacid = O=C(O)CCCCCCCCCCCCCCCCCCC(=O)*; γGlu = O=C(O)[C@H](CCC(=O)[*:2])N[*:1]; AEEA = NCCOCCOCC(=O)O

T1: human calcitonin receptor (human, UniProt P30988 25-474)
T1 sequence (looked up): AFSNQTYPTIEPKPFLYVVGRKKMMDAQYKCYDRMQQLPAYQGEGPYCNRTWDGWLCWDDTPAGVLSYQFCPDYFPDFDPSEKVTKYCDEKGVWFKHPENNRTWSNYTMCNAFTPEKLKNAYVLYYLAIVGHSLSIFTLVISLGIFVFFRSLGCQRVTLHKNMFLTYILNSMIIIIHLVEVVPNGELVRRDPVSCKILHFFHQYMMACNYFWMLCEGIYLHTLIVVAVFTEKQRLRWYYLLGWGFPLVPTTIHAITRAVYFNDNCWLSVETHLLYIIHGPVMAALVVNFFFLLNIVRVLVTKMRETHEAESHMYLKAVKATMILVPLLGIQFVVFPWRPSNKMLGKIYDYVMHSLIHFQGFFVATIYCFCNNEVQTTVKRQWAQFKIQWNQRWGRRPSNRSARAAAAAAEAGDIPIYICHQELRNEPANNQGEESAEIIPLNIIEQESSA

B1: N^ε1-[2-[2-[2-[[(4S)-4-carboxy-4-(19-carboxynonadecanoylamino)butanoyl]amino]ethoxy]ethoxy]acetyl]-[Arg17,Pro21,Pro27,Glu35]-h-amylin (peptide)
peptide: K([AEEA-γGlu-C20 diacid])CNTATCATQRLANFLRHSSPNFGAIPSSTNVGSETY-NH2
modifications: disulfide 2-7; N-terminus assumed
SMILES: CC[C@H](C)[C@H](NC(=O)[C@H](C)NC(=O)CNC(=O)[C@H](Cc1ccccc1)NC(=O)[C@H](CC(N)=O)NC(=O)[C@@H]1CCCN1C(=O)[C@H](CO)NC(=O)[C@H](CO)NC(=O)[C@H](Cc1c[nH]cn1)NC(=O)[C@H](CCCNC(=N)N)NC(=O)[C@H](CC(C)C)NC(=O)[C@H](Cc1ccccc1)NC(=O)[C@H](CC(N)=O)NC(=O)[C@H](C)NC(=O)[C@H](CC(C)C)NC(=O)[C@H](CCCNC(=N)N)NC(=O)[C@H](CCC(N)=O)NC(=O)[C@@H](NC(=O)[C@H](C)NC(=O)[C@@H]1CSSC[C@H](NC(=O)[C@@H](N)CCCCNC(=O)COCCOCCNC(=O)CC[C@H](NC(=O)CCCCCCCCCCCCCCCCCCC(=O)O)C(=O)O)C(=O)N[C@@H](CC(N)=O)C(=O)N[C@@H]([C@@H](C)O)C(=O)N[C@@H](C)C(=O)N[C@@H]([C@@H](C)O)C(=O)N1)[C@@H](C)O)C(=O)N1CCC[C@H]1C(=O)N[C@@H](CO)C(=O)N[C@@H](CO)C(=O)N[C@H](C(=O)N[C@@H](CC(N)=O)C(=O)N[C@H](C(=O)NCC(=O)N[C@@H](CO)C(=O)N[C@@H](CCC(=O)O)C(=O)N[C@H](C(=O)N[C@@H](Cc1ccc(O)cc1)C(N)=O)[C@@H](C)O)C(C)C)[C@@H](C)O
notes: h-amylin derivative; disulfide bridge and C-terminal amide as told for human amylin; also called compound 26
B2: N^ε1-[2-[2-[2-[[(4S)-4-carboxy-4-(19-carboxynonadecanoylamino)butanoyl]amino]ethoxy]ethoxy]acetyl]-[Arg17,Pro21,Pro27,Pro31]-h-amylin (peptide)
peptide: K([AEEA-γGlu-C20 diacid])CNTATCATQRLANFLRHSSPNFGAIPSSTPVGSNTY-NH2
modifications: disulfide 2-7; N-terminus assumed
SMILES: CC[C@H](C)[C@H](NC(=O)[C@H](C)NC(=O)CNC(=O)[C@H](Cc1ccccc1)NC(=O)[C@H](CC(N)=O)NC(=O)[C@@H]1CCCN1C(=O)[C@H](CO)NC(=O)[C@H](CO)NC(=O)[C@H](Cc1c[nH]cn1)NC(=O)[C@H](CCCNC(=N)N)NC(=O)[C@H](CC(C)C)NC(=O)[C@H](Cc1ccccc1)NC(=O)[C@H](CC(N)=O)NC(=O)[C@H](C)NC(=O)[C@H](CC(C)C)NC(=O)[C@H](CCCNC(=N)N)NC(=O)[C@H](CCC(N)=O)NC(=O)[C@@H](NC(=O)[C@H](C)NC(=O)[C@@H]1CSSC[C@H](NC(=O)[C@@H](N)CCCCNC(=O)COCCOCCNC(=O)CC[C@H](NC(=O)CCCCCCCCCCCCCCCCCCC(=O)O)C(=O)O)C(=O)N[C@@H](CC(N)=O)C(=O)N[C@@H]([C@@H](C)O)C(=O)N[C@@H](C)C(=O)N[C@@H]([C@@H](C)O)C(=O)N1)[C@@H](C)O)C(=O)N1CCC[C@H]1C(=O)N[C@@H](CO)C(=O)N[C@@H](CO)C(=O)N[C@H](C(=O)N1CCC[C@H]1C(=O)N[C@H](C(=O)NCC(=O)N[C@@H](CO)C(=O)N[C@@H](CC(N)=O)C(=O)N[C@H](C(=O)N[C@@H](Cc1ccc(O)cc1)C(N)=O)[C@@H](C)O)C(C)C)[C@@H](C)O
notes: h-amylin derivative; disulfide bridge and C-terminal amide as told for human amylin; also called compound 49
B3: N^ε1-[(4S)-4-carboxy-4-(19-carboxynonadecanoylamino)butanoyl]-[Arg17,Pro21,Pro27,Glu35]-h-amylin (peptide)
peptide: K([γGlu-C20 diacid])CNTATCATQRLANFLRHSSPNFGAIPSSTNVGSETY-NH2
modifications: disulfide 2-7; N-terminus assumed
SMILES: CC[C@H](C)[C@H](NC(=O)[C@H](C)NC(=O)CNC(=O)[C@H](Cc1ccccc1)NC(=O)[C@H](CC(N)=O)NC(=O)[C@@H]1CCCN1C(=O)[C@H](CO)NC(=O)[C@H](CO)NC(=O)[C@H](Cc1c[nH]cn1)NC(=O)[C@H](CCCNC(=N)N)NC(=O)[C@H](CC(C)C)NC(=O)[C@H](Cc1ccccc1)NC(=O)[C@H](CC(N)=O)NC(=O)[C@H](C)NC(=O)[C@H](CC(C)C)NC(=O)[C@H](CCCNC(=N)N)NC(=O)[C@H](CCC(N)=O)NC(=O)[C@@H](NC(=O)[C@H](C)NC(=O)[C@@H]1CSSC[C@H](NC(=O)[C@@H](N)CCCCNC(=O)CC[C@H](NC(=O)CCCCCCCCCCCCCCCCCCC(=O)O)C(=O)O)C(=O)N[C@@H](CC(N)=O)C(=O)N[C@@H]([C@@H](C)O)C(=O)N[C@@H](C)C(=O)N[C@@H]([C@@H](C)O)C(=O)N1)[C@@H](C)O)C(=O)N1CCC[C@H]1C(=O)N[C@@H](CO)C(=O)N[C@@H](CO)C(=O)N[C@H](C(=O)N[C@@H](CC(N)=O)C(=O)N[C@H](C(=O)NCC(=O)N[C@@H](CO)C(=O)N[C@@H](CCC(=O)O)C(=O)N[C@H](C(=O)N[C@@H](Cc1ccc(O)cc1)C(N)=O)[C@@H](C)O)C(C)C)[C@@H](C)O
notes: h-amylin derivative; disulfide bridge and C-terminal amide as told for human amylin; also called compound 27
B4: N^ε1-[(4S)-4-carboxy-4-[[(4S)-4-carboxy-4-(19-carboxynonadecanoylamino)butanoyl]amino]butanoyl]-[Asp14,Arg17,Pro21,Pro27,Arg35]-h-amylin (peptide)
peptide: K([γGlu-γGlu-C20 diacid])CNTATCATQRLADFLRHSSPNFGAIPSSTNVGSRTY-NH2
modifications: disulfide 2-7; N-terminus assumed
SMILES: CC[C@H](C)[C@H](NC(=O)[C@H](C)NC(=O)CNC(=O)[C@H](Cc1ccccc1)NC(=O)[C@H](CC(N)=O)NC(=O)[C@@H]1CCCN1C(=O)[C@H](CO)NC(=O)[C@H](CO)NC(=O)[C@H](Cc1c[nH]cn1)NC(=O)[C@H](CCCNC(=N)N)NC(=O)[C@H](CC(C)C)NC(=O)[C@H](Cc1ccccc1)NC(=O)[C@H](CC(=O)O)NC(=O)[C@H](C)NC(=O)[C@H](CC(C)C)NC(=O)[C@H](CCCNC(=N)N)NC(=O)[C@H](CCC(N)=O)NC(=O)[C@@H](NC(=O)[C@H](C)NC(=O)[C@@H]1CSSC[C@H](NC(=O)[C@@H](N)CCCCNC(=O)CC[C@H](NC(=O)CC[C@H](NC(=O)CCCCCCCCCCCCCCCCCCC(=O)O)C(=O)O)C(=O)O)C(=O)N[C@@H](CC(N)=O)C(=O)N[C@@H]([C@@H](C)O)C(=O)N[C@@H](C)C(=O)N[C@@H]([C@@H](C)O)C(=O)N1)[C@@H](C)O)C(=O)N1CCC[C@H]1C(=O)N[C@@H](CO)C(=O)N[C@@H](CO)C(=O)N[C@H](C(=O)N[C@@H](CC(N)=O)C(=O)N[C@H](C(=O)NCC(=O)N[C@@H](CO)C(=O)N[C@@H](CCCNC(=N)N)C(=O)N[C@H](C(=O)N[C@@H](Cc1ccc(O)cc1)C(N)=O)[C@@H](C)O)C(C)C)[C@@H](C)O
notes: h-amylin derivative; disulfide bridge and C-terminal amide as told for human amylin; also called compound 52
B5: N^ε1-[(4S)-4-carboxy-4-(19-carboxynonadecanoylamino)butanoyl]-[Arg17,Pro21,Pro27,Lys35]-h-amylin (peptide)
peptide: K([γGlu-C20 diacid])CNTATCATQRLANFLRHSSPNFGAIPSSTNVGSKTY-NH2
modifications: disulfide 2-7; N-terminus assumed
SMILES: CC[C@H](C)[C@H](NC(=O)[C@H](C)NC(=O)CNC(=O)[C@H](Cc1ccccc1)NC(=O)[C@H](CC(N)=O)NC(=O)[C@@H]1CCCN1C(=O)[C@H](CO)NC(=O)[C@H](CO)NC(=O)[C@H](Cc1c[nH]cn1)NC(=O)[C@H](CCCNC(=N)N)NC(=O)[C@H](CC(C)C)NC(=O)[C@H](Cc1ccccc1)NC(=O)[C@H](CC(N)=O)NC(=O)[C@H](C)NC(=O)[C@H](CC(C)C)NC(=O)[C@H](CCCNC(=N)N)NC(=O)[C@H](CCC(N)=O)NC(=O)[C@@H](NC(=O)[C@H](C)NC(=O)[C@@H]1CSSC[C@H](NC(=O)[C@@H](N)CCCCNC(=O)CC[C@H](NC(=O)CCCCCCCCCCCCCCCCCCC(=O)O)C(=O)O)C(=O)N[C@@H](CC(N)=O)C(=O)N[C@@H]([C@@H](C)O)C(=O)N[C@@H](C)C(=O)N[C@@H]([C@@H](C)O)C(=O)N1)[C@@H](C)O)C(=O)N1CCC[C@H]1C(=O)N[C@@H](CO)C(=O)N[C@@H](CO)C(=O)N[C@H](C(=O)N[C@@H](CC(N)=O)C(=O)N[C@H](C(=O)NCC(=O)N[C@@H](CO)C(=O)N[C@@H](CCCCN)C(=O)N[C@H](C(=O)N[C@@H](Cc1ccc(O)cc1)C(N)=O)[C@@H](C)O)C(C)C)[C@@H](C)O
notes: h-amylin derivative; disulfide bridge and C-terminal amide as told for human amylin; also called compound 35
B6: N^ε1-[2-[2-[2-[[(4S)-4-carboxy-4-(19-carboxynonadecanoylamino)butanoyl]amino]ethoxy]ethoxy]acetyl]-[Arg17,Pro21,Pro27,Pro34]-h-amylin (peptide)
peptide: K([AEEA-γGlu-C20 diacid])CNTATCATQRLANFLRHSSPNFGAIPSSTNVGPNTY-NH2
modifications: disulfide 2-7; N-terminus assumed
SMILES: CC[C@H](C)[C@H](NC(=O)[C@H](C)NC(=O)CNC(=O)[C@H](Cc1ccccc1)NC(=O)[C@H](CC(N)=O)NC(=O)[C@@H]1CCCN1C(=O)[C@H](CO)NC(=O)[C@H](CO)NC(=O)[C@H](Cc1c[nH]cn1)NC(=O)[C@H](CCCNC(=N)N)NC(=O)[C@H](CC(C)C)NC(=O)[C@H](Cc1ccccc1)NC(=O)[C@H](CC(N)=O)NC(=O)[C@H](C)NC(=O)[C@H](CC(C)C)NC(=O)[C@H](CCCNC(=N)N)NC(=O)[C@H](CCC(N)=O)NC(=O)[C@@H](NC(=O)[C@H](C)NC(=O)[C@@H]1CSSC[C@H](NC(=O)[C@@H](N)CCCCNC(=O)COCCOCCNC(=O)CC[C@H](NC(=O)CCCCCCCCCCCCCCCCCCC(=O)O)C(=O)O)C(=O)N[C@@H](CC(N)=O)C(=O)N[C@@H]([C@@H](C)O)C(=O)N[C@@H](C)C(=O)N[C@@H]([C@@H](C)O)C(=O)N1)[C@@H](C)O)C(=O)N1CCC[C@H]1C(=O)N[C@@H](CO)C(=O)N[C@@H](CO)C(=O)N[C@H](C(=O)N[C@@H](CC(N)=O)C(=O)N[C@H](C(=O)NCC(=O)N1CCC[C@H]1C(=O)N[C@@H](CC(N)=O)C(=O)N[C@H](C(=O)N[C@@H](Cc1ccc(O)cc1)C(N)=O)[C@@H](C)O)C(C)C)[C@@H](C)O
notes: h-amylin derivative; disulfide bridge and C-terminal amide as told for human amylin; also called compound 50

Each binder was assayed against T1, human calcitonin receptor (assay: cell-based or functional assay).

First: B1
Second: B2
The “hCTR funct. EC50” value of the first is 2.7-fold higher: 6.34 nM for the first, 2.39 nM for the second.

Compared with B3, B4 is 4.7-fold higher in “hCTR funct. EC50” value: 3 nM for the first, 14.1 nM for the second.

Going from B5 to B6, the “hCTR funct. EC50” value falls from 5.46 nM to 0.662 nM (8.2-fold).
